This data set deals with the molecule itself. The data set is described as follows: size exclusion chromatography, self-association. How it is done: The inventors designed a minispidroin composed of NT from E. australis MaSp1 and CT from A. ventricosus MiSp bracketing a short repetitive region from E. australis. The chimeric NT2RepCT protein was produced at unprecedented high levels in shake flask E. coli cultures and the yield after purification was around 125 mg protein/L cell culture. Nearly all protein was soluble after expression and lysis, and bound efficiently to the Ni-NTA column (FIG. 2A). The eluate contained >95% pure NT2RepCT and the size of the protein on the SDS PAGE gel corresponded well to the expected molecular mass (33 kDa) (FIG. 2A). Size-exclusion chromatography indicated a mass of 100 kDa (FIG. 6), in good agreement with a dimer (due to the constitutive dimeric nature of CT) and a non-globular structure of the repetitive part.
A Superdex 200 HR column (Amersham Biosciences) was used to run 200 μl of purifed protein sample in TBS running buffer (20 mM Iris, 150 mM NaCl and 1 mM EDTA, pH 8.0). The flow rate used was 0.5 ml/min. Molecular mass standards Ribonuclease A (13.7 kDa), Carbonic anhydrase (29 kDa), Ovalbumin (43 kDa), Conalbumin (75 kDa), Aldolase (158 kDa) and Ferritin (440 kDa) were used for calibration.

The values below come from patent publication US20230070786A1 (SPIBER TECHNOLOGIES, published 2023).

B1: NT2RepCT (other)
chain: MGHHHHHHMSHTTPWTNPGLAENFMNSFMQGLSSMPGFTASQLDDMSTIAQSMVQSIQSLAAQGRTSPNKLQALNMAFASSMAEIAASEEGGGSLSTKTSSIASAMSNAFLQTTGVVNQPFINEITQLVSMFAQAGMNDVSAGNSGRGQGGYGQGSGGNAAAAAAAAAAAAAAAGQGGQGGYGRQSQGAGSAAAAAAAAAAAAAAGSGQGGYGGQGQGGYGQSGNSVTSGGYGYGTSAAAGAGVAAGSYAGAVNRLSSAEAASRVSSNIAAIASGGASALPSVISNIYSGVVASGVSSNEALIQALLELLSALVHVLSSASIGNVSSVGVDSTLNVVQDSVGQYVG
notes: Engineered chimeric spidroin made in E. coli and tested with its His tag; also called chimeric minispidroin NT2RepCT; chimeric NT2RepCT protein
Take B1: the binding result is “binds”.
